In publication PMC9405973, “Altered Conformational Landscape upon Sensing Guanine Nucleotides in a Disease Mutant of Elongation Factor-like 1 (EFL1) GTPase” (Biomolecules, 2022):
Several values for one entry are separate records, joined by “and”; a condition that tells them apart may be missing. Equal values may be shown once.

What was measured:
[1] = molecular target: T1, S. cerevisiae Efl1 R1086Q (S. cerevisiae, UniProt P53893 1-1110, R1086Q); experiment: ITC; 30 °C; GTPase in the cell (30-50 µM), Sdo1 as ligand; 50 mM Tris-HCl pH 8.0, 150 mM NaCl, 100 µM DTT, 5% glycerol; one-binding-site model; settings: both partners purified
T1 construct: Elongation Factor-like 1 (Efl1) GTPase of S. cerevisiae with the mutation R1086Q, equivalent to human EFL1 R1095Q; also called mutant Efl1; mutant R1086Q; source: recombinantly expressed in S. cerevisiae, purified
T1 sequence (looked up): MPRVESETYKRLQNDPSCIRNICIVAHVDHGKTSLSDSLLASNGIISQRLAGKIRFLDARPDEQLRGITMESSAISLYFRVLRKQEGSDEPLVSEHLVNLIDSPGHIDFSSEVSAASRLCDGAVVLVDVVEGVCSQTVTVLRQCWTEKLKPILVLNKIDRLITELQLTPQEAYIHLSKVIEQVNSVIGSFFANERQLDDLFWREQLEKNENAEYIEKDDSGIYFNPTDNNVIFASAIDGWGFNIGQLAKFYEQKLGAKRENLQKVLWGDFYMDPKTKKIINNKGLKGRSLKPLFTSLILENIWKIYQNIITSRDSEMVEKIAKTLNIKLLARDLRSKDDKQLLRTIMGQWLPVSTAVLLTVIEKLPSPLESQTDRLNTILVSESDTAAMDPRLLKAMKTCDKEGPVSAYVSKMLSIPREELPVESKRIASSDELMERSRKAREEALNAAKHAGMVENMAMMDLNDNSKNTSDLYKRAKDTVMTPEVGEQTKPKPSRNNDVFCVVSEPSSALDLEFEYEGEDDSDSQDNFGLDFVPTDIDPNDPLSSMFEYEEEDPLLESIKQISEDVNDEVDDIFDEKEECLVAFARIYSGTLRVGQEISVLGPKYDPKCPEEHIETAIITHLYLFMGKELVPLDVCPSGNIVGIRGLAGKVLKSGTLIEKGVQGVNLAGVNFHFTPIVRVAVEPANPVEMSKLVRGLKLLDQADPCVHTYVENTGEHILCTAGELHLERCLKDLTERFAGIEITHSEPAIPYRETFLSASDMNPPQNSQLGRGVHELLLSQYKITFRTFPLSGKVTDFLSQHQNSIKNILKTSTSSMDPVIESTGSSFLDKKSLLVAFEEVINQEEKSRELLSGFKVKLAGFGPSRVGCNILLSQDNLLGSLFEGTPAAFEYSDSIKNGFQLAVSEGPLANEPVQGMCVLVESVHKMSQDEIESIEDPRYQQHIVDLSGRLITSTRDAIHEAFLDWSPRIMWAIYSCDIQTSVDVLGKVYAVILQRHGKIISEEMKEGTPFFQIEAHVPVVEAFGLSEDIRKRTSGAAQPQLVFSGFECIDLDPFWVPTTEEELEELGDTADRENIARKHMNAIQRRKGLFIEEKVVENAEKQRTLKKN

[2] = molecular target: T1, S. cerevisiae Efl1 R1086Q; experiment: ITC; coupled equilibria at 30 °C with MgGDP (5 mM MgCl2); heterotropic cooperativity calculated from the titrations of Efl1 R1086Q and of Efl1 R1086Q•Sdo1; settings: both partners purified
[3] = molecular target: T2, Efl1 R1086Q (Saccharomyces cerevisiae, UniProt P53893, R1086Q); experiment: Isothermal titration calorimetry (ITC): binding of guanine nucleotides or Sdo1 to Efl1 R1086Q
T2 construct: made in house; host or cells: Saccharomyces cerevisiae
Description: All calorimetric measurements were carried out using MicroCal^TM iTC200 System (GE Healthcare, Northampton, MA, USA) in a temperature range of 25–35 °C. Experiments were performed in a buffer consisting of 50 mM Tris-HCl (pH 8.0), 150 mM NaCl, 100 µM DTT, and 5% glycerol. In the titrations with Mg^2+-bound nucleotides, both the ligand and protein solutions contained 5 mM MgCl2. In the case of titrations with Mg^2+-free nucleotide, both the ligand and protein solutions were supplemented with 2 mM EDTA to sequester any residual trace of metal ions in solution. Protein samples and ligands were prepared in the exact same buffer prior to each titration. Protein concentration in the cell comprised 30–50 µM GTPase, while the ligand concentration in the syringe was 2–3 mM for GTP, MgGTP, GDP, and MgGDP. To ensure measuring the interaction of the complex Efl1 R1086Q•Sdo1 with the nucleotide, an eight-fold concentration excess of Sdo1 was used compared with that of the enzyme. […] The titration schedule consisted of 15–20 consecutive injections of the ligand with 5 min intervals between injections and a stirring rate of 700 rpm. The dilution heat of the ligand was obtained by adding the ligand to a buffer solution under identical conditions and with the same injection schedule used for the protein sample. All samples were degassed for 10 min prior to the experiment.
The binding isotherms obtained for the isolated GTPase in the presence of Mg(II) were analysed using a ternary model in which the protein can bind to the free nucleotide (G(D)TP) or that bound to one magnesium ion (MgG(D)TP); additionally, GTP may also exist in the form of Mg2GTP, which is not recognised by the protein. The derivation of this coupled-equilibria model can be reviewed in [6, 31]. The binding constant (Kb), the enthalpy change (∆Hb), and the stoichiometry (n) were obtained with the non-linear routines implemented in Origin 5.0 (OriginLab, Co., Northampton, MA, USA) using a one-binding-site model as described in [32, 33]. The heterotropic cooperativity for the binding of guanine nucleotides and Sdo1 to Efl1 R1086Q were calculated as previously described in [6, 32]. The cooperative effects of Mg(II) on the binding of guanine nucleotides to Efl1 R1086Q alone and bound to Sdo1 were calculated as follows:κ = KE-MG/KE-G κ = KES-MG/KES-G Δh = ΔHE-MG − ΔHE-G Δh = ΔHES-MG − ΔHES-G where subscripts E-MG and E-G stand for the association of the metal-bound and metal-free guanine nucleotide with mutant Efl1, respectively. Corresponding expressions applied to the heterotropic cooperativity of the binding of nucleotides to the preformed complex, Efl1•Sdo1 (ES).
The impact of Sdo1 on the binding of Efl1 R1086Q to guanine nucleotides in the presence of magnesium ions is contained in KES-MG and ΔHES-MG relative to the KE-S and ΔHE-S values; analogous ratios report the effects in the absence of Mg(II):κ = KES-MG/KE-S κ = KES-G/KE-G Δh = ΔHES-MG − ΔHE-S Δh = ΔHES-G − ΔHE-G
The corresponding cooperative entropy change was calculated as:TΔs = Δh − Δg = Δh + RTlnκ
The detailed methodology and equations to compute the changes in the accessible surface area (∆ASA) of the GTPase upon binding to nucleotides and the ∆S energetic-based parameters are reported in [6]. Briefly, the water-accessible areas (ASAs) were computed using programme NACCESS, while the changes in accessible surface area (ΔASA) upon the formation of each GTPase–nucleotide complex were estimated considering the difference between the complex and the sum of the free interacting partners. The calculated polar (ΔASAp) and apolar (ΔASAap) area changes were subsequently used to estimate the free molecular partners. […]

[4] = molecular target: T1, S. cerevisiae Efl1 R1086Q; experiment: ITC; 35 °C; GTPase in the cell (30-50 µM), Sdo1 as ligand; 50 mM Tris-HCl pH 8.0, 150 mM NaCl, 100 µM DTT, 5% glycerol; one-binding-site model; settings: both partners purified
[5] = molecular target: T1, S. cerevisiae Efl1 R1086Q; experiment: ITC; 25 °C; GTPase in the cell (30-50 µM), Sdo1 as ligand; 50 mM Tris-HCl pH 8.0, 150 mM NaCl, 100 µM DTT, 5% glycerol; one-binding-site model; settings: both partners purified
[6] = system: wild-type Efl1; settings: cited from earlier work

B1: Yeast SBDS (Sdo1) (natural protein, S. cerevisiae, UniProt Q07953 1-250, looked up)
chain: MPINQPSGQIKLTNVSLVRLKKARKRFEVACYQNKVQDYRKGIEKDLDEVLQIHQVFMNVSKGLVANKEDLQKCFGTTNVDDVIEEIMHKGEIQLSEKERQLMLNKVNNEMLTIVSAKCINPVSKKRYPPTMIHKALQELKFSPVINKPAKLQALEAIKLLVSKQIIPIVRAKMKVKVAISEPSRQPELIEKISKLIASSPGESTKPELDPWTCTGLIDPVNYRDLMTLCDKKGTVQVLDMAVIDNTTHN
notes: Sdo1, the yeast orthologue of SBDS; also called yeast Shwachman-Bodian-Diamond syndrome protein; source: E. coli C41, purified
Ka [1]: 288000 ± 56000 M⁻¹ | Kd [1]: 3400 ± 600 nM | dH [1]: -6.3 ± 0.2 kcal/mol | fold decrease of the interaction with MgGDP against no nucleotide [2]: 3 fold | -TΔSb ([3]; ligand Sdo1, 25 °C): -3.1 kcal/mol | ΔGb ([3]; ligand Sdo1, 25 °C): -7.4 kcal/mol | -TΔSb ([3]; ligand Sdo1, 30 °C): -1.3 kcal/mol | ΔGb ([3]; ligand Sdo1, 30 °C): -7.6 kcal/mol | Kd ([3]; ligand Sdo1, 30 °C, read-out: Kd): 3000 nM | -TΔSb ([3]; ligand Sdo1, 35 °C): 0.6 kcal/mol | ΔGb ([3]; ligand Sdo1, 35 °C): -8.1 kcal/mol | ΔCpb ([3]; ligand Sdo1, from ΔHb at 25–35 °C): −440 cal mol^−1 K^−1 and −440 ± 23 cal mol^−1 K^−1 | Ka [4]: 543000 ± 76000 M⁻¹ | Kd [4]: 1800 ± 200 nM | dH [4]: -8.7 ± 0.1 kcal/mol | Ka [5]: 256000 ± 47000 M⁻¹ | Kd [5]: 3900 ± 700 nM | dH [5]: -4.3 ± 0.1 kcal/mol | -TΔSb ([6]; ligand Sdo1, 30 °C): 4.4 kcal/mol | Kd ([6]; ligand Sdo1, 30 °C): 300 nM | ΔGb ([6]; ligand Sdo1, 30 °C): -9.0 kcal/mol | ΔHb ([6]; ligand Sdo1, 30 °C): -13.4 ± 0.4 kcal/mol | ΔCpb ([6]; ligand Sdo1): −860 cal mol^−1 K^−1 and −860 ± 31 cal mol^−1 K^−1
